Each sequence was assayed on AncSZ (assay: phosphorylation enrichment, bacterial display (enrichment ratio); higher = better substrate or ligand; peptides without Tyr show the background).
In the case of PKGIRYGQGAG [CSRP3_Y73_G72R], the phosphorylation enrichment is reported as 0.532.
In the case of QLQVFYATLDQ [MIPEP_Y579], the phosphorylation enrichment is reported as 1.74.
Sequence ALRASYTPSPV [ESS2_Y418_A423V] has a phosphorylation enrichment of 0.847.
Work on WDLTDYLMKIL [ACTB_Y188_R183W] yielded a phosphorylation enrichment of 1.25.
With FNSLLYQVPTS [CALCOCO2_Y358_P357L] the phosphorylation enrichment was 2.77.
With SLFNGYVYSGV [NEIL3_Y71] the phosphorylation enrichment was 1.04.
For FARECYSALPQ [SARS2_Y52_G51C_YF], the phosphorylation enrichment was 1.66.
Work on SFPSFYTSHVQ [NEFL_Y443_YF] yielded a phosphorylation enrichment of 0.874.
Sequence SYCYRYRCAAQ [SUMF1_Y344_R349Q] has a phosphorylation enrichment of 0.768.
TINPIHEHVGY [CHN1_Y143_Y143H] gave a phosphorylation enrichment of 0.679.
Sequence MEKEKYVSYIS [JMJD1C_Y596] has a phosphorylation enrichment of 0.795.
For QCTSAYLLQPE [NANS_Y188_P189L], the phosphorylation enrichment was 1.41.
Work on KKCTRYIDCDL [ASPA_Y64] yielded a phosphorylation enrichment of 0.798.
HNVPICEGYAL [ACTC1_Y168_Y168C] was tested, and the phosphorylation enrichment was 0.86.
PKEEPYKMQEK [SLC5A3_Y565_Q566K] was tested, and the phosphorylation enrichment was 0.885.
LSVISYDLGMF [GBA3_Y174_M172I] was tested, and the phosphorylation enrichment was 1.2.
For ACCLLYHGDVV [TUBA4A_Y319_R320H], the phosphorylation enrichment was 0.918.
MASISYDYCRV [BST2_Y6_T4I] gave a phosphorylation enrichment of 1.58.
DDIPLYLKGGV [COX7A2_Y44_E40D] showed a phosphorylation enrichment of 1.01.
For GLVFLYVEKNQ [PRELP_Y156_M157V], the phosphorylation enrichment was 1.22.
NPIGLYSAEIL [LDB3_Y202_T206I] showed a phosphorylation enrichment of 0.751.
With LQLLGDRPVYS [CHST6_Y358_Y358D] the phosphorylation enrichment was 1.88.
DDEVFYSPRSL [OTC_Y317] gave a phosphorylation enrichment of 1.67.
CDKEYYSVHNK [MET_Y1235_Y1230C] was tested, and the phosphorylation enrichment was 2.06.
In the case of SSVKPYRVYCD [FGB_Y266], the phosphorylation enrichment is reported as 0.659.
PFSSPYENSLI [EPOR_Y489_N487S_YF] showed a phosphorylation enrichment of 1.4.
IFLENYNAGTF [CFI_Y421_H418L_YF] was tested, and the phosphorylation enrichment was 0.896.
In the case of LTTPTYGDLNH [TUBB_Y222], the phosphorylation enrichment is reported as 1.41.
Work on NEKNIYRVPLM [BMPR2_Y247] yielded a phosphorylation enrichment of 0.622.
For SLLPDYEDEEE [ZNF830_Y159], the phosphorylation enrichment was 1.47.
ISKKRYAGLLF [POLD1_Y809] gave a phosphorylation enrichment of 0.539.
FIATQYSLRPR [LBR_Y166_YF] gave a phosphorylation enrichment of 0.635.
Sequence GDSVQYNRTTD [MLPH_Y454_P451S] has a phosphorylation enrichment of 0.612.

The sequences below were run against EPHB1 (UniProt P54762) in the same assay as above.
Chain of EPHB1 (P54762 whole entry, looked up): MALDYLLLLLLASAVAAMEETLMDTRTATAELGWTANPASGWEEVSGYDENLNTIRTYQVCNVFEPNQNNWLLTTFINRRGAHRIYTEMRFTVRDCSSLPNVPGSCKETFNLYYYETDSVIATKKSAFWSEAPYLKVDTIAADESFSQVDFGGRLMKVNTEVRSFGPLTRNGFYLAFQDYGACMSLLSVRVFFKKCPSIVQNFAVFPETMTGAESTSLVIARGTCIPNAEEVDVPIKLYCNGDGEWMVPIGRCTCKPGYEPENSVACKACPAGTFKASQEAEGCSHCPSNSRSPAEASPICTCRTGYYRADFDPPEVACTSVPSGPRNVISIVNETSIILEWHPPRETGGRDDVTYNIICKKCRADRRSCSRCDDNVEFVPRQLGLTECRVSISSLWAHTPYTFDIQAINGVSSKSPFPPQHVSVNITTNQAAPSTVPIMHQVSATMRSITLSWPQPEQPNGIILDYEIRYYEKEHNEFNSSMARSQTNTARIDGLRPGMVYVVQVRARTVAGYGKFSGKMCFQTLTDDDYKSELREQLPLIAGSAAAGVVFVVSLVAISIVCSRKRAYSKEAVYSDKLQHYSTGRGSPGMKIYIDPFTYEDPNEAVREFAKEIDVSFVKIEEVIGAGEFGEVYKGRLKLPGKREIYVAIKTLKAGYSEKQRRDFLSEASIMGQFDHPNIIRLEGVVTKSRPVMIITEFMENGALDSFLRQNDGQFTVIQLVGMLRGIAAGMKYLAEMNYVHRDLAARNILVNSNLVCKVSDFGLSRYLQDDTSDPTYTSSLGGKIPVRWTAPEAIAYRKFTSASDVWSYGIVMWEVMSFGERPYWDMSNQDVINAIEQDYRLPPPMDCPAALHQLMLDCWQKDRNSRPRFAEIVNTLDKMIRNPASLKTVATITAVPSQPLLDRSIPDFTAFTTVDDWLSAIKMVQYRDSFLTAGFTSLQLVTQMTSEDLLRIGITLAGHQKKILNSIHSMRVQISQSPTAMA
PKGIRYGQGAG [CSRP3_Y73_G72R] showed a phosphorylation enrichment of 0.502.
For QLQVFYATLDQ [MIPEP_Y579], the phosphorylation enrichment was 1.09.
Work on ALRASYTPSPV [ESS2_Y418_A423V] yielded a phosphorylation enrichment of 0.366.
For WDLTDYLMKIL [ACTB_Y188_R183W], the phosphorylation enrichment was 0.556.
Work on FNSLLYQVPTS [CALCOCO2_Y358_P357L] yielded a phosphorylation enrichment of 12.
With SLFNGYVYSGV [NEIL3_Y71] the phosphorylation enrichment was 0.555.
Work on FARECYSALPQ [SARS2_Y52_G51C_YF] yielded a phosphorylation enrichment of 0.55.
Work on SFPSFYTSHVQ [NEFL_Y443_YF] yielded a phosphorylation enrichment of 0.677.
In the case of SYCYRYRCAAQ [SUMF1_Y344_R349Q], the phosphorylation enrichment is reported as 0.382.
TINPIHEHVGY [CHN1_Y143_Y143H] showed a phosphorylation enrichment of 0.674.
MEKEKYVSYIS [JMJD1C_Y596] showed a phosphorylation enrichment of 0.571.
With QCTSAYLLQPE [NANS_Y188_P189L] the phosphorylation enrichment was 0.555.
KKCTRYIDCDL [ASPA_Y64] showed a phosphorylation enrichment of 0.428.
HNVPICEGYAL [ACTC1_Y168_Y168C] gave a phosphorylation enrichment of 0.801.
Sequence PKEEPYKMQEK [SLC5A3_Y565_Q566K] has a phosphorylation enrichment of 0.544.
In the case of LSVISYDLGMF [GBA3_Y174_M172I], the phosphorylation enrichment is reported as 0.742.
Sequence ACCLLYHGDVV [TUBA4A_Y319_R320H] has a phosphorylation enrichment of 0.551.
MASISYDYCRV [BST2_Y6_T4I] showed a phosphorylation enrichment of 4.17.
DDIPLYLKGGV [COX7A2_Y44_E40D] gave a phosphorylation enrichment of 0.525.
With GLVFLYVEKNQ [PRELP_Y156_M157V] the phosphorylation enrichment was 0.6.
For NPIGLYSAEIL [LDB3_Y202_T206I], the phosphorylation enrichment was 3.
LQLLGDRPVYS [CHST6_Y358_Y358D] was tested, and the phosphorylation enrichment was 2.17.
In the case of DDEVFYSPRSL [OTC_Y317], the phosphorylation enrichment is reported as 0.597.
With CDKEYYSVHNK [MET_Y1235_Y1230C] the phosphorylation enrichment was 0.734.
Sequence SSVKPYRVYCD [FGB_Y266] has a phosphorylation enrichment of 0.449.
With PFSSPYENSLI [EPOR_Y489_N487S_YF] the phosphorylation enrichment was 1.24.
For IFLENYNAGTF [CFI_Y421_H418L_YF], the phosphorylation enrichment was 0.468.
For LTTPTYGDLNH [TUBB_Y222], the phosphorylation enrichment was 1.14.
NEKNIYRVPLM [BMPR2_Y247] was tested, and the phosphorylation enrichment was 0.377.
With SLLPDYEDEEE [ZNF830_Y159] the phosphorylation enrichment was 0.744.
With ISKKRYAGLLF [POLD1_Y809] the phosphorylation enrichment was 0.415.
In the case of FIATQYSLRPR [LBR_Y166_YF], the phosphorylation enrichment is reported as 0.39.
Work on GDSVQYNRTTD [MLPH_Y454_P451S] yielded a phosphorylation enrichment of 0.486.

Each sequence was assayed against EPHB2 (UniProt P29323) in the same assay as above.
Chain of EPHB2 (P29323 whole entry, looked up): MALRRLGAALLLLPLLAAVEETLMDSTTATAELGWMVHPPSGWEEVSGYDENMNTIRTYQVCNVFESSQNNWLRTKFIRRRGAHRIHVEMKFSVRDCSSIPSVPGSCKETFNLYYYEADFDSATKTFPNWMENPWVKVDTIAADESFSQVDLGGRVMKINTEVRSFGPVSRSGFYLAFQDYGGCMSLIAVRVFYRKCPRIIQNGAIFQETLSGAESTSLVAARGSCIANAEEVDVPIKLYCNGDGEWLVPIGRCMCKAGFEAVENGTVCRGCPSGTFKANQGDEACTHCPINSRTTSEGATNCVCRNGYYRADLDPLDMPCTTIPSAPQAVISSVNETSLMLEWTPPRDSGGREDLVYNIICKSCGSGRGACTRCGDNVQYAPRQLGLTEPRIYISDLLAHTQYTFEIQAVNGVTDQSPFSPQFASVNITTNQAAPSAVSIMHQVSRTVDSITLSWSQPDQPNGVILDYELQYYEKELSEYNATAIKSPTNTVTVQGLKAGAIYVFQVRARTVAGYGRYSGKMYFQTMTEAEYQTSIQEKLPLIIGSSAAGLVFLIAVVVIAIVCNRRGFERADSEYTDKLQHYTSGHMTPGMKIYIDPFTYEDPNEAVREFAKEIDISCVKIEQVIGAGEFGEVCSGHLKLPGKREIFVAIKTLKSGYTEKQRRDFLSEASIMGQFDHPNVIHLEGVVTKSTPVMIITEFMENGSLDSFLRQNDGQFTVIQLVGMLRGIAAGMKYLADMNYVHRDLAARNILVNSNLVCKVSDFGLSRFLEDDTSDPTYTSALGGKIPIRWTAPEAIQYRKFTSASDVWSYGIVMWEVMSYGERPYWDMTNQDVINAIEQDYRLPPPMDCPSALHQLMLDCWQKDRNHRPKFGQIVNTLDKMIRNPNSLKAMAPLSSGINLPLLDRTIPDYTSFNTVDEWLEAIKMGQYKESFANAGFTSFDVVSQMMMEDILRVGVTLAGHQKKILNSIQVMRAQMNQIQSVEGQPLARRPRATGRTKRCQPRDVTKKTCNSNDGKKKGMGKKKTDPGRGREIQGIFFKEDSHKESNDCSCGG
For PKGIRYGQGAG [CSRP3_Y73_G72R], the phosphorylation enrichment was 0.375.
QLQVFYATLDQ [MIPEP_Y579] showed a phosphorylation enrichment of 1.99.
ALRASYTPSPV [ESS2_Y418_A423V] was tested, and the phosphorylation enrichment was 0.53.
Work on WDLTDYLMKIL [ACTB_Y188_R183W] yielded a phosphorylation enrichment of 0.548.
FNSLLYQVPTS [CALCOCO2_Y358_P357L] showed a phosphorylation enrichment of 18.8.
SLFNGYVYSGV [NEIL3_Y71] was tested, and the phosphorylation enrichment was 0.66.
With FARECYSALPQ [SARS2_Y52_G51C_YF] the phosphorylation enrichment was 0.603.
SFPSFYTSHVQ [NEFL_Y443_YF] was tested, and the phosphorylation enrichment was 0.584.
SYCYRYRCAAQ [SUMF1_Y344_R349Q] was tested, and the phosphorylation enrichment was 0.424.
Work on TINPIHEHVGY [CHN1_Y143_Y143H] yielded a phosphorylation enrichment of 0.433.
Work on MEKEKYVSYIS [JMJD1C_Y596] yielded a phosphorylation enrichment of 0.509.
Sequence QCTSAYLLQPE [NANS_Y188_P189L] has a phosphorylation enrichment of 0.727.
KKCTRYIDCDL [ASPA_Y64] showed a phosphorylation enrichment of 0.434.
In the case of HNVPICEGYAL [ACTC1_Y168_Y168C], the phosphorylation enrichment is reported as 0.513.
Sequence PKEEPYKMQEK [SLC5A3_Y565_Q566K] has a phosphorylation enrichment of 0.403.
Sequence LSVISYDLGMF [GBA3_Y174_M172I] has a phosphorylation enrichment of 0.72.
Work on ACCLLYHGDVV [TUBA4A_Y319_R320H] yielded a phosphorylation enrichment of 0.539.
Work on MASISYDYCRV [BST2_Y6_T4I] yielded a phosphorylation enrichment of 3.29.
DDIPLYLKGGV [COX7A2_Y44_E40D] was tested, and the phosphorylation enrichment was 0.701.
For GLVFLYVEKNQ [PRELP_Y156_M157V], the phosphorylation enrichment was 0.622.
In the case of NPIGLYSAEIL [LDB3_Y202_T206I], the phosphorylation enrichment is reported as 2.6.
In the case of LQLLGDRPVYS [CHST6_Y358_Y358D], the phosphorylation enrichment is reported as 2.16.
Work on DDEVFYSPRSL [OTC_Y317] yielded a phosphorylation enrichment of 0.597.
With CDKEYYSVHNK [MET_Y1235_Y1230C] the phosphorylation enrichment was 0.69.
SSVKPYRVYCD [FGB_Y266] showed a phosphorylation enrichment of 0.564.
For PFSSPYENSLI [EPOR_Y489_N487S_YF], the phosphorylation enrichment was 1.15.
Work on IFLENYNAGTF [CFI_Y421_H418L_YF] yielded a phosphorylation enrichment of 0.578.
Sequence LTTPTYGDLNH [TUBB_Y222] has a phosphorylation enrichment of 1.44.
Work on NEKNIYRVPLM [BMPR2_Y247] yielded a phosphorylation enrichment of 0.357.
SLLPDYEDEEE [ZNF830_Y159] was tested, and the phosphorylation enrichment was 0.829.
In the case of ISKKRYAGLLF [POLD1_Y809], the phosphorylation enrichment is reported as 0.471.
With FIATQYSLRPR [LBR_Y166_YF] the phosphorylation enrichment was 0.518.
With GDSVQYNRTTD [MLPH_Y454_P451S] the phosphorylation enrichment was 0.38.

What follows are sequences tested against FGFR1 (UniProt P11362) in the same assay as above.
Chain of FGFR1 (P11362 whole entry, looked up): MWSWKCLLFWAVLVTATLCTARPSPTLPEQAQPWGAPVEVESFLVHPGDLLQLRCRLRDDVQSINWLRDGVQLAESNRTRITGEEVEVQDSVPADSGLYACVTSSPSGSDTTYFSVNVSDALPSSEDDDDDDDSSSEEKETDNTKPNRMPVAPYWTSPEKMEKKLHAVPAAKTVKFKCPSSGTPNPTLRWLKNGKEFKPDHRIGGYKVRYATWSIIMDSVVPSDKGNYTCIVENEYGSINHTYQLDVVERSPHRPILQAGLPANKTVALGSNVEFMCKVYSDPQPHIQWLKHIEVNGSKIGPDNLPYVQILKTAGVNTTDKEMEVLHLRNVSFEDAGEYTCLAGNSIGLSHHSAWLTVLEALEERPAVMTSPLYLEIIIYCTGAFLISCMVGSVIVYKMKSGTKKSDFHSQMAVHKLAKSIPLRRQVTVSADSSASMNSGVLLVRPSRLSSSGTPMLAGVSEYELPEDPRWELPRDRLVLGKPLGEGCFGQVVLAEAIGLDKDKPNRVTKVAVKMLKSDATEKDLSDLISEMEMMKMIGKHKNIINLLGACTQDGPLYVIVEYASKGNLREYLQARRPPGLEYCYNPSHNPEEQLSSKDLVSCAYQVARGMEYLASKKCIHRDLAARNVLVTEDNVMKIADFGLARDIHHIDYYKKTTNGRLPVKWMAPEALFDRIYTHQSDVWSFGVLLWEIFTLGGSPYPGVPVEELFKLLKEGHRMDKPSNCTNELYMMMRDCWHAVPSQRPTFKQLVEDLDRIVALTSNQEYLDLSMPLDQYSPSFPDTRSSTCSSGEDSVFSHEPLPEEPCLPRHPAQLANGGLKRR
PKGIRYGQGAG [CSRP3_Y73_G72R] was tested, and the phosphorylation enrichment was 0.339.
In the case of QLQVFYATLDQ [MIPEP_Y579], the phosphorylation enrichment is reported as 1.12.
Work on ALRASYTPSPV [ESS2_Y418_A423V] yielded a phosphorylation enrichment of 0.32.
Sequence WDLTDYLMKIL [ACTB_Y188_R183W] has a phosphorylation enrichment of 0.539.
FNSLLYQVPTS [CALCOCO2_Y358_P357L] gave a phosphorylation enrichment of 1.17.
In the case of SLFNGYVYSGV [NEIL3_Y71], the phosphorylation enrichment is reported as 0.624.
In the case of FARECYSALPQ [SARS2_Y52_G51C_YF], the phosphorylation enrichment is reported as 1.17.
Work on SFPSFYTSHVQ [NEFL_Y443_YF] yielded a phosphorylation enrichment of 0.5.
Sequence SYCYRYRCAAQ [SUMF1_Y344_R349Q] has a phosphorylation enrichment of 0.499.
TINPIHEHVGY [CHN1_Y143_Y143H] showed a phosphorylation enrichment of 0.426.
With MEKEKYVSYIS [JMJD1C_Y596] the phosphorylation enrichment was 0.401.
For QCTSAYLLQPE [NANS_Y188_P189L], the phosphorylation enrichment was 0.733.
Work on KKCTRYIDCDL [ASPA_Y64] yielded a phosphorylation enrichment of 0.623.
HNVPICEGYAL [ACTC1_Y168_Y168C] was tested, and the phosphorylation enrichment was 0.732.
PKEEPYKMQEK [SLC5A3_Y565_Q566K] was tested, and the phosphorylation enrichment was 0.565.
For LSVISYDLGMF [GBA3_Y174_M172I], the phosphorylation enrichment was 0.328.
For ACCLLYHGDVV [TUBA4A_Y319_R320H], the phosphorylation enrichment was 2.49.
For MASISYDYCRV [BST2_Y6_T4I], the phosphorylation enrichment was 1.32.
DDIPLYLKGGV [COX7A2_Y44_E40D] showed a phosphorylation enrichment of 0.496.
For GLVFLYVEKNQ [PRELP_Y156_M157V], the phosphorylation enrichment was 0.44.
NPIGLYSAEIL [LDB3_Y202_T206I] gave a phosphorylation enrichment of 0.419.
With LQLLGDRPVYS [CHST6_Y358_Y358D] the phosphorylation enrichment was 1.63.
In the case of DDEVFYSPRSL [OTC_Y317], the phosphorylation enrichment is reported as 0.504.
With CDKEYYSVHNK [MET_Y1235_Y1230C] the phosphorylation enrichment was 2.49.
For SSVKPYRVYCD [FGB_Y266], the phosphorylation enrichment was 0.463.
PFSSPYENSLI [EPOR_Y489_N487S_YF] was tested, and the phosphorylation enrichment was 0.604.
For IFLENYNAGTF [CFI_Y421_H418L_YF], the phosphorylation enrichment was 0.489.
With LTTPTYGDLNH [TUBB_Y222] the phosphorylation enrichment was 1.03.
NEKNIYRVPLM [BMPR2_Y247] showed a phosphorylation enrichment of 0.446.
In the case of SLLPDYEDEEE [ZNF830_Y159], the phosphorylation enrichment is reported as 0.583.
Work on ISKKRYAGLLF [POLD1_Y809] yielded a phosphorylation enrichment of 0.57.
FIATQYSLRPR [LBR_Y166_YF] showed a phosphorylation enrichment of 0.532.
In the case of GDSVQYNRTTD [MLPH_Y454_P451S], the phosphorylation enrichment is reported as 0.487.

From the supplement of paper PMC10065799, “High-throughput profiling of sequence recognition by tyrosine kinases and SH2 domains using bacterial peptide display” (eLife, 2023)
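Also: 11-residue human phosphosite peptides and single-mutation variants displayed on the E. coli surface, counted by deep sequencing, each peptide's frequency after selection divided by its frequency in the unselected input library; frequency after pTyr selection over input frequency; kinase dosed for 20-30% of maximal phosphorylation in three min.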
